Data: patent publication US11578136B2, “Compositions and methods for treating cancer” (INNATE PHARMA, priority 2017, dated 2023)
Entries after “also recorded” stand apart in the source; their conditions may differ.

Tests used:
allogenic CD4 T cells = assay: Mixed lymphocytes reaction (MLR) with ATP-activated DC; type: cell-based, human; conditions: MoDC activated with ATP plus antibody; 5 days
Protocol: Briefly, human monocytes were purified from human healthy blood and differentiated into MoDC in presence of GM-CSF and IL-4 during 6 days. Then MoDC were activated in presence of ATP (Sigma, 0.25-1 mM) during 24 hours and DC activation were assessed by analyzing CD80, CD83 and HLA-DR expression by flow cytometry. In some cases, MoDC were preincubated during 1 hours in presence of CD39 inhibitor: […] (Tocris, 250 μM), CD73 inhibitor: APCP (Tocris 50 μM), anti-CD39 blocking antibody I-394 or BY40 (for BY40 see WO2009/095478), or anti-CD73 blocking antibodies. LPS (Invivogen, 10 ng/ml) was used as positive control. To assess resulting effect of ATP-mediated DC activation on CD4 T cells activation, ATP-activated DC were washed and then incubated with allogenic CD4 T cells (ratio 1 MoDC/4 T cells) for a mixed lymphocytes reaction (MLR) during 5 days. T cells activation and proliferation were analyzed through CD25 expression and Cell Trace Violet dilution by flow cytometry (FIG. 8).

[1] = molecular target: T1, soluble recombinant human CD39 protein (Homo sapiens, UniProt P49961); assay: Inhibition of the enzymatic activity of soluble CD39 (Cell Titer Glo); type: biochemical
T1 construct: made in house; host or cells: CHO cells
T1 sequence (P49961 with tags, fused parts or gaps): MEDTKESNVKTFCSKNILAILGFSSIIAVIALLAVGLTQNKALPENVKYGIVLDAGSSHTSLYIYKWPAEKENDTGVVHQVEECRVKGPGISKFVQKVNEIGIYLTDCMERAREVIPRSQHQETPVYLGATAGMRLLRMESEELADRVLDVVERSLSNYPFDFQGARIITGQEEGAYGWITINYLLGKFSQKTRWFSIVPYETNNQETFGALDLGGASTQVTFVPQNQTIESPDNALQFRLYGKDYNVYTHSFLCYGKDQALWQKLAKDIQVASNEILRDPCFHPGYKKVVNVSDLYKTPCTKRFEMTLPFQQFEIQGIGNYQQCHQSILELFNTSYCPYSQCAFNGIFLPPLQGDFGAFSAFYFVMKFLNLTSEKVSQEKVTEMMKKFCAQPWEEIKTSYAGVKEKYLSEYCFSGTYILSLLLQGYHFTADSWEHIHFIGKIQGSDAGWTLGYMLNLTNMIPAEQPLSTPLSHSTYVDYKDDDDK
Protocol: The inhibition by antibodies of the enzymatic activity of soluble CD39 protein produced was evaluated using Cell Titer Glo™ (Promega, reference G7571) that allows assessment of ATP hydrolysis through use of a reagent that generates a luminescent signal proportional to the amount of ATP present. In this way, inhibition of the soluble-CD39-meidatd ATP hydrolysis can be assessed. Briefly, dose ranges of anti-CD39 antibodies from 100 μg/ml to 6×10^−3 μg/ml were incubated with 400 ng/ml of soluble recombinant human CD39 protein having the amino acid sequence described in the Methods section (SEQ ID NO: 45), for 1 h at 37° C. 20 μM ATP was added to the plates for 30 additional minutes at 37° C. before addition of CTG (Cell Titer Glo) reagent. Emitted light was quantified using an Enspire™ luminometer after a short incubation period of 5 min in the dark. Anti-CD39 antibody efficacy was determined by comparing emitted light in presence of antibody with ATP alone (maximal light emission) and ATP together with soluble CD39 protein (minimal light emission).

[2] = molecular target: T2, human CD39-expressing CHO cells (CHO-huCD39) (Homo sapiens, UniProt P49961); assay: Inhibition of the enzymatic activity of cellular CD39 in CHO-huCD39; type: cell-based; conditions: result in words
T2 construct: expressed in transfected cells; host or cells: CHO cells
T2 sequence (P49961 1-510): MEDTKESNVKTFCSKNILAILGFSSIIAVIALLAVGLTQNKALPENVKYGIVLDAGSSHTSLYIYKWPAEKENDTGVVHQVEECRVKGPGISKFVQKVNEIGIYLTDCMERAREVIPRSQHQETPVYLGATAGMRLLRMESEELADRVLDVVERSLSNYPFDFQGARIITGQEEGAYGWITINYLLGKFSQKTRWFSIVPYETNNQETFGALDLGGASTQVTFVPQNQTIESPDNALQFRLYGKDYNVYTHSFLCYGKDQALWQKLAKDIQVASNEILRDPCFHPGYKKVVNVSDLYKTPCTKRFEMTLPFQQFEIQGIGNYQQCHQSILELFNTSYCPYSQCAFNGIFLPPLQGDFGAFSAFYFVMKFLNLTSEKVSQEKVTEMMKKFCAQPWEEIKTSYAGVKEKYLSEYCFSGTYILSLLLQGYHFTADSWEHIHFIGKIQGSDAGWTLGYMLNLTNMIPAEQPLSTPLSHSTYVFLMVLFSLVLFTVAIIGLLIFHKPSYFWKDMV
Protocol: The inhibition of the CD39 enzymatic activity in CD39-expressing cells by antibodies was evaluated using Cell Titer Glo™ (Promega, reference G7571) that allows assessment of ATP hydrolysis through use of a reagent that generates a luminescent signal proportional to the amount of ATP present. The assay was thus designed to permit assessment of the inhibition of ATP hydrolyzed by CD39 in the cell culture supernatant. Briefly, 5×10^4 Ramos human lymphoma cells, 5×10^3 human CD39-, cynomolgus CD39- and mouse CD39-expressing CHO cells, were incubated 1 hour at 37° C. with anti-CD39 antibodies from 30 μg/ml to […]. Cells were then incubated with 20 μM ATP for 1 additional hour at 37° C. Plates were centrifuged for 2 min at 400 g and 50 μl cell supernatant are transferred in a luminescence microplate (white wells). 50 μl CellTiter-Glo® Reagent (CTG) was added to the supernatant and emitted light was quantified after a 5 min incubation in the dark using a Enspire™ luminometer. Anti-CD39 antibody efficacy was determined by comparing emitted light in presence of antibody with ATP alone (maximal light emission) and ATP together with cells (minimal light emission).
The inhibition by antibody I-394 of the ATPase activity of CD39 in CD39-expressing cells was evaluated using the assay used for inhibition of the enzymatic activity of cellular CD39 as described above (Methods).

I-394: anti-CD39 antibody, VH SEQ ID NO: 6, VL SEQ ID NO: 7; human IgG1 Fc with L234A/L235E/G237A/A330S/P331S
T cells proliferation and activation in MLR (CD25 expression, Cell Trace Violet dilution) (allogenic CD4 T cells): higher T cells proliferation and activation
maximum inhibition achieved, soluble CD39 [1]: 74.9%
relative potency of inhibition of soluble CD39 (FIG. 2B) ([1]; ranking among I-394, I-395, I-396): greatest potency
inhibition of the enzymatic activity of soluble CD39 protein ([1]; result in words, 400 ng/ml sCD39, 20 μM ATP): strong inhibition; also recorded: inhibits
blocking CD39 enzymatic activity in CHO-huCD39 [2]: blocks
